T1: Tat47-58 peptide (HIV-1 Tat) (HIV-1)
T1 chain: YGRKKRRQRRRP


Experiments:
[1] = molecular target: T1, Tat47-58 peptide (HIV-1 Tat); experiment: EMSA; TK buffer: 50 mM Tris-HCl pH 7.4, 20 mM KCl, 0.5 mM MgCl2, 0.1% Triton X-100; peptide 0.1-1.6 uM; annealed from 90 C to 24 C; gel at 4 C; details: protein: synthetic; label: 5'-fluorescein, 3'-32P cytidine bisphosphate; hairpin
[2] = molecular target: T1, Tat47-58 peptide (HIV-1 Tat); experiment: EMSA; capillary electrophoresis mobility shift; TK buffer 0.5 mM MgCl2; peptide 0.1-1.6 mM as printed; details: protein: synthetic; label: 5'-fluorescein; hairpin

Binder	binding result [1]	binding result [2]
GGCAGAUCUGAGCCUGGGAGCUCUCUGCC (ssRNA) [HIV-1 TAR RNA oligonucleotide]	binds	–
GGCAGAUCUGAGCCUGGGAGCUCUCUGCC (ssRNA) [HIV-1 TAR RNA oligonucleotide (fluorescein only)]	–	binds

— patent US20060257866, “Methods for identifying small molecules that modulate premature translation termination and nonsense mediated mrna decay” (published 2006)
